According to patent US20250144141A1 (CDR LIFE, published 2025):
Blank lines part the entries; values can stand above or below the binder they belong to.

Experiments:
[1] = target: T1, HLA-A*02:01/MAGE-A4 complex (human, UniProt P04439 25-299 at identity 0.94); P61769 21-119); experiment: SPR (Biacore T200), HLA-A*02:01/MAGE-A4 as ligand; sample kept in human serum at 37 C for 0, 7 and 24 h and injected after 1:100 dilution; signal relative to the start sample
T1 construct: Coated on ELISA plates and on a streptavidin SPR chip; a biotin tag is not described; also called HLA-A2/MAGE-A4 complex; pMHC-MAGE-A4

[2] = target: CD3 heterodimer (Acro Biosystems) (UniProt P07766 23-126); experiment: not stated in the sentence (SPR on a CD3 heterodimer chip is described in Example 7)
Chain of CD3 heterodimer (Acro Biosystems) (P07766 23-126, one chain of several): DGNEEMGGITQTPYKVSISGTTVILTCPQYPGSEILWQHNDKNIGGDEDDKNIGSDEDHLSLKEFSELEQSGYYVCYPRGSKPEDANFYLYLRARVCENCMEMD

[3] = target: T1, HLA-A*02:01/MAGE-A4 complex; experiment: not stated in the sentence (SPR is described in Example 7)
[4] = target: T1, HLA-A*02:01/MAGE-A4 complex; experiment: direct ELISA, plate coated with HLA-A*02:01/MAGE-A4 complex, serial dilution of the Fab
[5] = target: T1, HLA-A*02:01/MAGE-A4 complex; experiment: SPR

B2: M1048 (bispecific antibody)
chain 1: EVQLVESGGGLVQPGGSLRLSCAASGFTFSTYAMNWVRQAPGKGLEWVGRIRSKYNNYATYYADSVKGRFTISRDDSKNTLYLQMNSLRAEDTAVYYCVRHGNFGDSYVSWFAYWGQGTLVTVSSASTKGPSVFPLAPSSKSTSGGTAALGCLVKDYFPEPVTVSWNSGALTSGVHTFPAVLQSSGLYSLSSVVTVPSSSLGTQTYICNVNHKPSNTKVDKRVEPKSCGGGGSSYELTQPPSVSVSPGQTASITCTADTLSRSYASWYQQKPGQSPVLVIYRDTSRPSGIPERFSGSNSGNTATLTISGTQAMDEADYYCATRPSSGSNFQLFGGGTKLTVLGGGGGGSGGGGSGGGGSGGGGSESQVLESGGGSVQPGGSLRLSCTVSGFSLSNYAMSWVRQAPGKGLEYIGIVSSGGTTYYASWAKGRFTISKDTSKNTVYLQMNSLRAEDTASYYCAKDLYYGPTTYSAFNLWGQGTSVTVSS
chain 2: QAVVTQEPSLTVSPGGTVTLTCGSSTGAVTTSNYANWVQQKPGKSPRGLIGGTNKRAPGVPARFSGSLLGGKAALTISGAQPEDEADYYCALWYSNHWVFGGGTKLTVLGQPKAAPSVTLFPPSSEELQANKATLVCLISDFYPGAVTVAWKADSSPVKAGVETTTPSKQSNNKYAASSYLSLTPEQWKSHRSYSCQVTHEGSTVEKTVAPTECSGGGGSSYELTQPPSVSVSPGQTASITCTADTLSRSYASWYQQKPGQSPVLVIYRDTSRPSGIPERFSGSNSGNTATLTISGTQAMDEADYYCATRPSSGSNFQLFGGGTKLTVLGGGGGGSGGGGSGGGGSGGGGSESQVLESGGGSVQPGGSLRLSCTVSGFSLSNYAMSWVRQAPGKGLEYIGIVSSGGTTYYASWAKGRFTISKDTSKNTVYLQMNSLRAEDTASYYCAKDLYYGPTTYSAFNLWGQGTSVTVSS
Kd [2]: 10 nM
Kd [3]: 0.25 nM

B4: M1067 (bispecific antibody)
chain 1: SYELTQPPSVSVSPGQTASITCTADTLSRSYASWYQQKPGQSPVLVIYRDTSRPSGIPERFSGSNSGNTATLTISGTQAMDEADYYCATRPSSGSNFQLFGGGTKLTVLGGGGGGSGGGGSGGGGSGGGGSEVQLLESGGGSVQPGGSLRLSCTVSGFSLSNYAMSWVRQAPGKGLEYIGIVSSGGTTYYASWAKGRFTISKDTSKNTVYLQMNSLRAEDTASYYCAKDLYYGPTTYSAFNLWGQGTSVTVSS
chain 2: EVQLVESGGGLVQPGGSLRLSCAASGFTFSTYAMNWVRQAPGKGLEWVGRIRSKYNNYATYYADSVKGRFTISRDDSKNTLYLQMNSLRAEDTAVYYCVRHGNFGDSYVSWFAYWGQGTLVTVSSASTKGPSVFPLAPSSKSTSGGTAALGCLVKDYFPEPVTVSWNSGALTSGVHTFPAVLQSSGLYSLSSVVTVPSSSLGTQTYICNVNHKPSNTKVDKRVEPKSC
chain 3: QAVVTQEPSLTVSPGGTVTLTCGSSTGAVTTSNYANWVQQKPGKSPRGLIGGTNKRAPGVPARFSGSLLGGKAALTISGAQPEDEADYYCALWYSNHWVFGGGTKLTVLGQPKAAPSVTLFPPSSEELQANKATLVCLISDFYPGAVTVAWKADSSPVKAGVETTTPSKQSNNKYAASSYLSLTPEQWKSHRSYSCQVTHEGSTVEKTVAPTECS
Kd [5]: 0.12 nM

Results, then the binder that gave them:

binding result [1]: binds
B1: M1403 (bispecific antibody)
heavy: EVQLVESGGGLVQPGGSLRLSCAASGFTFSTYAMNWVRQAPGKGLEWVGRIRSKYNNYATYYADSVKGRFTISRDDSKNTLYLQMNSLRAEDTAVYYCVRHGNFGDSYVSWFAYWGQGTLVTVSSASTKGPSVFPLAPSSKSTSGGTAALGCLVKDYFPEPVTVSWNSGALTSGVHTFPAVLQSSGLYSLSSVVTVPSSSLGTQTYICNVNHKPSNTKVDKRVEPKSCGGGGSSYELTQPPSVSVSPGQTASITCTADTLSRSYASWYQQKPGQSPVLVIYRDTSRPSGIPERFSGSNSGNTATLTISGTQAMDEADYYCATRPSSGSNFQAFGGGTKLTVLGGGGGGSGGGGSGGGGSGGGGSEVQLLESGGGSVQPGGSLRLSCTVSGFSLSNYAMSWVRQAPGKGLEYIGIVSSGGTTYYASWAKGRFTISRDNSKNTVYLQMNSLRAEDTASYYCAKDLYYGPTTYSAFNLWGQGTSVTVSS
light: QAVVTQEPSLTVSPGGTVTLTCGSSTGAVTTSNYANWVQQKPGKSPRGLIGGTNKRAPGVPARFSGSLLGGKAALTISGAQPEDEADYYCALWYSNHWVFGGGTKLTVLGQPKAAPSVTLFPPSSEELQANKATLVCLISDFYPGAVTVAWKADSSPVKAGVETTTPSKQSNNKYAASSYLSLTPEQWKSHRSYSCQVTHEGSTVEKTVAPTECSGGGGSSYELTQPPSVSVSPGQTASITCTADTLSRSYASWYQQKPGQSPVLVIYRDTSRPSGIPERFSGSNSGNTATLTISGTQAMDEADYYCATRPSSGSNFQAFGGGTKLTVLGGGGGGSGGGGSGGGGSGGGGSEVQLLESGGGSVQPGGSLRLSCTVSGFSLSNYAMSWVRQAPGKGLEYIGIVSSGGTTYYASWAKGRFTISRDNSKNTVYLQMNSLRAEDTASYYCAKDLYYGPTTYSAFNLWGQGTSVTVSS
notes: Fab(scFv)2 dual pMHC-targeting T cell engager, no Fc; also called dual engager M1403

EC50 (read off the curve) [4]: ~0.6 nM
B3: M0702 (Fab, V domains shown)
VH: QEQLEESGGGLVTPGTPLTLTCTASGFSLSSYAMIWVRQAPGKGLEWIGTINDGGTAFYANWVKGRFTISRTSTTVDLKMTSPTTEDTATYFCARAYGSNGDVYWGYVNLWGQGTLVTVSS
VL: ELVMTQTPASVSEPVGGTVTIKCQASQSIGSNLAWYQQKPGQPPKLLIYAAANLASGVSSRFKGSRSGTEYTLTISGVQAADAATYYCQQGYSSSNVANVFGGGTELEILR
